Measurements published in US20240327505A1 (published 2024).

Columns and labels:
SARS-CoV-2 S2 protein = SARS-CoV-2 S2 protein (SARS-CoV-2, UniProt P0DTC2 686-1213)
[1] = target: SARS-CoV-2 spike S2 protein (SARS-CoV-2, UniProt P0DTC2 686-1213)
[2] = target: SARS-CoV-2 Spike (S) trimer (SARS-CoV-2, UniProt P0DTC2 16-1213); test: ELISA on coated S trimer, 1:50
[3] = target: SARS-CoV-2 spike receptor-binding domain (RBD) (SARS-CoV-2, UniProt P0DTC2 319-541)
[4] = target: SARS-CoV-2 spike S1 protein (SARS-CoV-2, UniProt P0DTC2 16-685)
[5] = target: SARS-CoV-2 spike receptor-binding domain (RBD) (SARS-CoV-2, UniProt P0DTC2 319-541); remark: listed apart in the source
[6] = target: SARS-CoV-2 spike S1 protein (SARS-CoV-2, UniProt P0DTC2 16-685); remark: listed apart in the source

Binder | Kd (SARS-CoV-2 S2 protein) [nM] | koff (SARS-CoV-2 S2 protein) [s⁻¹] | kon (SARS-CoV-2 S2 protein) [M⁻¹ s⁻¹] | Kd [1] [nM] | koff [1] [s⁻¹] | kon [1] [M⁻¹ s⁻¹] | OD 450 nm [2] [OD] | further results
AB-009283 (antibody, V domains shown) VH: EVQLVESGGGLIQPGGSLRLSCAASGFTVSSNYMSWVRQAPGKGLEWVSVIYSGGSTYYADSVKGRFTISRDNSKNTLYLQMNSLRAEDTAVYYCATSSFDYYYYFMDVWGKGTTVTVSS VL: SYELTQPPSVSVSPGQTASITCSGDKLGDKYACWYHQKPGQSPVLVIYQDTKRPSGIPERFSASNSGNTATLTISGTQALDEADYYCQAWDSSIVVFGGGTKLTVL | 22.7 | 0.000319 | 14100 | – | – | – | – | –
AB-009363 (antibody, V domains shown) VH: EVQLLESGGGLVQPGGSLRLSCAASGFTFSSFAMTWIRQAPGKGLEWISAIGGDGGATYYVDSIKGRFTISRDNSKNTVYLHMNGLRVEDTAVYYCATPSPTRYSWGQGTLVTVSS VL: DIVMTQSPDSLAVSLGERATLNCKSSQSVLYSSNNKNYLAWYQQKPGQPPKLLFYWASTRQSGVPDRFSGSGSGTDFTLTISSLQAEDGAVYYCQQYHKTPHTFGQGTKLEIK | – | – | – | 192 | 0.0016 | 8330 | 2.94 | –
AB-009273 (antibody, V domains shown) VH: QVQLVQSGAEVKKPGSSVKVSCKASGGTFSSYAISWVRQAPGQGLEWMGGIIPIFGTANYAQKFQGRVTITTDESTSTAYMELSSLRSEDTAVYYCARVGVYDSSGYYFDYWGQGTLVTVSS VL: EIVLTQSPATLSLSPGERATLSCRASQSVSSYLAWYQQKPGQAPRLLIYDASNRATGIPARFSGSGSGTDFTLTISSLEPEDFAVYYCQQRSNWPPRLTFGGGTKVEIK | 6.87 | 0.000148 | 21500 | – | – | – | – | –
AB-009676 (antibody, V domains shown) VH: QVQLQQWGAGLLKPSETLSLTCAVYGGSFSGYYWSWIRQPPGKGLEWIGEINHSGSTNYNPSLKSRVTISVDTSKNQFSLKLSSVTAADTAVYYCARLSRQWLVRPHIYYFDYWGQGTLVTVSS VL: DIQMTQSPSTLSASVGDRVTITCRASQSVSSYLNWYQQKPGKAPKLLIYAASSLQSGVPSRFSGSGSGTDFTLTISSLQPEDFATYFCQQSYSTPRTFGQGTKLEIK | 0.0456 | 3.12e-07 | 6840 | – | – | – | – | –
AB-009710 (antibody, V domains shown) VH: LVQLIQSGAEVVKPGSSVKVSCTASGGSYSSYTLSWVRQAPGQGVEWLGRISPVLNTTYYAQKLEGRVTMTADESTSTVYMQLSSLRSEDTAVYYCARLASMNGVDIWGQGTSVTVSS VL: EIVLTQSPGTLSLSPGERATLSCRASQSVYGSYLAWYQQKPGQAPRLLIYGGSSRATGIPDRFSGSGSGTDFTLTISRLEPEDFAVYYCHQYGTSRYSFGQGTKLDIK | 46.8 | 0.000591 | 12600 | – | – | – | – | –
AB-009083 (antibody, V domains shown) VH: EVHLLESGGGLVQPGGSLTLTCAASGFSFGNYVMGWVRQAPGKGLEWVSSIFGSGANPHYGGSVKGRFTISRDNSQNTLFLQMDSLTAEDTAVYYCARDGGTMVGGIITGGFNYFDSWGQGTLVTVSS VL: EIVLTQSPASLSLSPGGWATLSCRASRSIGNSLAWYQQRPGQAPRLLIYDASNRATGIPARFSGSGSGTDFTLTISSLEPEDFAIYYCQQRNSWPPLYTFGQGTKLEIK | – | – | – | 0.164 | 4.95e-07 | 3010 | 0.249 | –
AB-009251 (antibody, V domains shown) V domain 1: QVQLVQSGAEVKKPGASVKVSCKTSGYTFTTFYIHWVRQVPGQGLEWMGIINPDGGSTNYAQEFQARVTMTTDTSTSTAYMELSSLRFEDTAVFYCATSLGAPPGLSPRTGPQRRGPPGFDFWGQGTLITVSA V domain 2: QSVLTQPPSVSGAPGQRVTISCTGSSSNIGAGYDVHWYQQLPGTAPKLLIFDNNNRPSGVPYRFSGSRSGTSASLAITGLQPEDEADYYCQSYDSSLSGRVFGGGTRVTVL | – | – | – | – | – | – | 0.886 | Kd [3]: 9.31 nM; koff [3]: 0.000469 s⁻¹; kon [3]: 50400 M⁻¹ s⁻¹; Kd [4]: 48.1 nM; koff [4]: 0.000544 s⁻¹; kon [4]: 11300 M⁻¹ s⁻¹
AB-009226 (antibody, V domains shown) VH: not shown VL: QSALTQPASVSGSPGQSITISCTGTSSDVGGYNYVSWYQQHPGKAPKLMIYEVSNRPSGVSNRFSGSKSGNTASLTISGLQAEDEADYYCSSYTSSSTLYVFGTGTKVTVL | – | – | – | 27.9 | 0.000783 | 28100 | 2.33 | –
AB-010020 (antibody, V domains shown) VH: QMQLVQSGPEVKKPGTSVKVSCKASGFTFTSSAVQWVRQARGQRLEWIGWIVVGSGNTNYAQKFQERVTITRDMSTSTAYMELSSLRSEDTAVYYCAAPACSSTSCYDGFDIWGQGTMVTVSS VL: not shown | – | – | – | – | – | – | – | Kd [5]: 2.16 nM; koff [5]: 0.00212 s⁻¹; kon [5]: 980000 M⁻¹ s⁻¹; Kd [6]: 13.5 nM; koff [6]: 0.0069 s⁻¹; kon [6]: 512000 M⁻¹ s⁻¹
AB-009214 (antibody, V domains shown) VH: QVQLVESGGGVVQPGRSLRLSCAASGFTFSSYGMHWVRQAPGKGLEWVAVIWYDGSNKYYADSVKGRFTISRDNSKNTLYLQMNSLRAEDTAVYYCARDEPPSYYGSGSRFDYWGQGTLVTVSS VL: SYELTQPPSVSVSPGQTARITCSGDALPKKYAYWYQQKSGQAPVLVIYEDSKRPSGIPERFSGSSSGTMATLTISGAQVEDEADYYCYSTDSSGNHWVFGGGTKLTVL | – | – | – | 23.2 | – | – | 0.691 | –
AB-009106 (antibody, V domains shown) VH: QVQLAQSGAEVKRPGASVKVSCKASGFDLTTYGVGWVRQAPGQGLEWMGWISGSSGDTHYAQQFQDRVTMTTDTPTSTAYMELRSLRSDDTAVYYCVRENIAHYGSRTFLVRYYRGMDVWGQGTTVTVAS VL: QSALTQPASVSGSPGQSITITCTGSSSDIGGFDFVSWYQQYPGKAPKLVISEVTNRPSGVSIRFSGSKSGNTASLTISGLQAEDEADYYCSSYASSYPTTNTRVFGTGTKVTVL | – | – | – | 0.0413 | 2.63e-07 | 6370 | 0.1 | –
AB-009291 (antibody, V domains shown) VH: EVHLLESGGGLVQPGGSLRLSCAASGFTFTTYAMFWVRQAPGKGLEWVSAINAGGAKTHYADSVRGRFTISRDNSKSTLYLHMDRLRVGDTAIYYCAKVPSYIYDSRDDYLDFWGQGTLVTVSS VL: EIVLTQSPATLSLSPGERATLSCRASQSVSSYLAWYQQRPGQAPRLLIYDASSRATGIPVRFSGSGSGTDFTLTISSLEPEDFAVYYCQQRSDWPLLTFGGGTKVEIK | – | – | – | 0.0174 | 3.28e-07 | 18900 | 2.26 | –
AB-009631 (antibody, V domains shown) VH: EVQLVESGGGLVQPGGSLRLSCAASGFNFSFYWMSWVRQAPGKGLEWVANIKQDGSEKYYVDSVKGRFTISRDNAKNSLYLQMNSLRAEDTAVYYCARLSGGSWYFDYWGQGTLVTVSS VL: not shown | 0.0273 | 3.31e-07 | 12100 | – | – | – | – | –
AB-009610 (antibody, V domains shown) VH: QVQLVQSGAEVKKPGSSVKVSCKASGGTFSNYAISWVRQAPGQGLEWMGRIIPILGIANYAQKFQGRVTITADKSTSTAYMELSSLRSEDTAVYYCATTPYYYDSSGYYLDYWGQGTLVTVSS VL: not shown | – | – | – | – | – | – | – | Kd [5]: 21.6 nM; koff [5]: 0.00107 s⁻¹; kon [5]: 49500 M⁻¹ s⁻¹; Kd [6]: 111 nM; koff [6]: 0.00456 s⁻¹; kon [6]: 41100 M⁻¹ s⁻¹
AB-009271 (antibody, V domains shown) VH: EVQLVESGGGLIQPGGSLRLSCAASGFIVSSNYMSWVRQAPGKGLEWVSVIYSGGSTYYADSVKGRFTISRDNSKNTLYLQMNSLRAEDTAVYYCARDYGDFYFDYWGQGTLVTVSS VL: EIVMTQSPATLSVSPGERATLSCRASQSVSSNLAWYQQKPGQAPRLLIYGASTRATGIPARFSGSGSGTEFTLTISSLQSEDFAVYYCQQYYNWPRTFGQGTKVEIK | – | – | – | – | – | – | – | Kd [5]: 15.1 nM; koff [5]: 0.00141 s⁻¹; kon [5]: 93200 M⁻¹ s⁻¹; Kd [6]: 55.4 nM; koff [6]: 0.0042 s⁻¹; kon [6]: 75900 M⁻¹ s⁻¹
